Measurements: patent publication US11499162B2, “Plants having increased tolerance to herbicides” (BASF SE, priority 2016, dated 2022)
Changes are numbered by the printed parent chain. In names and notes the source's numbering stands.

B1: N70C: mutated TriA variant of SEQ ID NO: 2 (protein)
chain: MQTLSIQHGTLVTMDQYRRVLGDSWVHVQDGRIVALGVHAESVPPPADRVIDARGKVVLPGFINAHTHVCQILLRGGPSHGRQLYDWLFNVLYPGQKAMRPEDVAVAVRLYCAEAVRSGITTINDNADSAIYPGNIEAAMAVYGEVGVRVVYARMFFDRMDGRIQGYVDALKARSPQVELCSIMEETAVAKDRITALSDQYHGTAGGRISVWPAPAITPAVTVEGMRWAQAFARDRAVMWTLHMAESDHDERLHWMSPAEYMECYGLLDERLQVAHCVYFDRKDVRLLHRHNVKVASQVVSNAYLGSGVAPVPEMVERGMAVGIGTDDGNCNDSVNMIGDMKFMAHIHRAVHRDADVLTPEKILEMATIDGARSLGMDHEIGSIETGKRADLILLDLRHPQTTPHHHLAATIVFQAYGNEVDTVLIDGNVVMENRRLSFLPPERELAFLEEAQSRATAILQRANMVANPAWRSL
modifications: Pseudomonas
B2: H249N: mutated TriA variant of SEQ ID NO: 2 (protein)
chain: B1 chain with C70N, H249N
modifications: Pseudomonas
B3: D248G: mutated TriA variant of SEQ ID NO: 2 (protein)
chain: B1 chain with C70N, D248G
modifications: Pseudomonas
B4: S247N: mutated TriA variant of SEQ ID NO: 2 (protein)
chain: B1 chain with C70N, S247N
modifications: Pseudomonas
B5: D250N: mutated TriA variant of SEQ ID NO: 2 (protein)
chain: B1 chain with C70N, D250N
modifications: Pseudomonas
B6: S247A: mutated TriA variant of SEQ ID NO: 2 (protein)
chain: B1 chain with C70N, S247A
modifications: Pseudomonas
B7: F157AA220G: mutated TriA variant of SEQ ID NO: 2 (protein)
chain: B1 chain with C70N, F157A, A220G
modifications: Pseudomonas
B8: S247G: mutated TriA variant of SEQ ID NO: 2 (protein)
chain: B1 chain with C70N, S247G
modifications: Pseudomonas
B9: E246Q: mutated TriA variant of SEQ ID NO: 2 (protein)
chain: B1 chain with C70N, E246Q
modifications: Pseudomonas
B10: N70V: mutated TriA variant of SEQ ID NO: 2 (protein)
chain: B1 chain with C70V
modifications: Pseudomonas
B11: D248S: mutated TriA variant of SEQ ID NO: 2 (protein)
chain: B1 chain with C70N, D248S
modifications: Pseudomonas
B12: D250E: mutated TriA variant of SEQ ID NO: 2 (protein)
chain: B1 chain with C70N, D250E
modifications: Pseudomonas
B13: E246S: mutated TriA variant of SEQ ID NO: 2 (protein)
chain: B1 chain with C70N, E246S
modifications: Pseudomonas
B14: E246D: mutated TriA variant of SEQ ID NO: 2 (protein)
chain: B1 chain with C70N, E246D
modifications: Pseudomonas
B15: S247V: mutated TriA variant of SEQ ID NO: 2 (protein)
chain: B1 chain with C70N, S247V
modifications: Pseudomonas
B16: D248N: mutated TriA variant of SEQ ID NO: 2 (protein)
chain: B1 chain with C70N, D248N
modifications: Pseudomonas
B17: A220G: mutated TriA variant of SEQ ID NO: 2 (protein)
chain: B1 chain with C70N, A220G
modifications: Pseudomonas
B18: S247P: mutated TriA variant of SEQ ID NO: 2 (protein)
chain: B1 chain with C70N, S247P
modifications: Pseudomonas
B19: N70G: mutated TriA variant of SEQ ID NO: 2 (protein)
chain: B1 chain with C70G
modifications: Pseudomonas
B20: H249I: mutated TriA variant of SEQ ID NO: 2 (protein)
chain: B1 chain with C70N, H249I
modifications: Pseudomonas
B21: H249V: mutated TriA variant of SEQ ID NO: 2 (protein)
chain: B1 chain with C70N, H249V
modifications: Pseudomonas
B22: E251D: mutated TriA variant of SEQ ID NO: 2 (protein)
chain: B1 chain with C70N, E251D
modifications: Pseudomonas
B23: E246T: mutated TriA variant of SEQ ID NO: 2 (protein)
chain: B1 chain with C70N, E246T
modifications: Pseudomonas

Format: biochemical
Details: pH 7.2
Outline: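 E. coli resting cells expressing His-tagged TriA incubated with azines, melamine or atrazine. Enzyme in 25 mM sodium phosphate pH 7.2 at 30 °C, substrate 1–10 nM. Loss of parent and formation of OH-metabolite followed by UPLC-HR-MS; % degradation relative to empty-vector cells.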

B1 and B2 are the same in “Degradation in % of 6-cyclopentyl-N4-(2,3,4,5,6-pentafluorophenyl)-1,3,5-triazine-2,4-diamine” value: 0% for the first, 0% for the second.

First: B3
Second: B4
The “Degradation in % of 6-cyclopentyl-N4-(2,3,4,5,6-pentafluorophenyl)-1,3,5-triazine-2,4-diamine” value of the first is lower: 0% for the first, 2% for the second.

First: B5
Second: B6
The “Degradation in % of 6-cyclopentyl-N4-(2,3,4,5,6-pentafluorophenyl)-1,3,5-triazine-2,4-diamine” value of the first is higher: 1% for the first, 0% for the second.

Compared with B7, B8 is higher in “Degradation in % of 6-cyclopentyl-N4-(2,3,4,5,6-pentafluorophenyl)-1,3,5-triazine-2,4-diamine” value: 0% for the first, 2% for the second.

Going from B9 to B10, the “Degradation in % of 6-cyclopentyl-N4-(2,3,4,5,6-pentafluorophenyl)-1,3,5-triazine-2,4-diamine” value rises from 0% to 4%.

Compared with B11, B12 is lower in “Degradation in % of 6-cyclopentyl-N4-(2,3,4,5,6-pentafluorophenyl)-1,3,5-triazine-2,4-diamine” value: 3% for the first, 2% for the second.

Compared with B13, B14 is higher in “Degradation in % of 6-cyclopentyl-N4-(2,3,4,5,6-pentafluorophenyl)-1,3,5-triazine-2,4-diamine” value: 1% for the first, 5% for the second.

Compared with B15, B16 is higher in “Degradation in % of 6-cyclopentyl-N4-(2,3,4,5,6-pentafluorophenyl)-1,3,5-triazine-2,4-diamine” value: 2% for the first, 4% for the second.

B17 and B18 are the same in “Degradation in % of 6-cyclopentyl-N4-(2,3,4,5,6-pentafluorophenyl)-1,3,5-triazine-2,4-diamine” value: 0% for the first, 0% for the second.

Going from B19 to B20, the “Degradation in % of 6-cyclopentyl-N4-(2,3,4,5,6-pentafluorophenyl)-1,3,5-triazine-2,4-diamine” value rises from 0% to 1%.

Going from B21 to B22, the “Degradation in % of 6-cyclopentyl-N4-(2,3,4,5,6-pentafluorophenyl)-1,3,5-triazine-2,4-diamine” value rises from 0% to 35%.

With B23 the “Degradation in % of 6-cyclopentyl-N4-(2,3,4,5,6-pentafluorophenyl)-1,3,5-triazine-2,4-diamine” value was 3%.

Compared with B1, B2 is higher in “Degradation in % of Melamine” value: 0% for the first, 1% for the second.

First: B3
Second: B4
The “Degradation in % of Melamine” value of the first is higher: 7% for the first, 0% for the second.

Going from B5 to B6, the “Degradation in % of Melamine” value falls from 3% to 1%.

First: B7
Second: B8
The “Degradation in % of Melamine” value of the first is lower: 0% for the first, 2% for the second.

First: B9
Second: B10
The “Degradation in % of Melamine” value of the first is higher: 4% for the first, 0% for the second.

Compared with B11, B12 is lower in “Degradation in % of Melamine” value: 20% for the first, 3% for the second.

B13 and B14 are the same in “Degradation in % of Melamine” value: 0% for the first, 0% for the second.

First: B15
Second: B16
The “Degradation in % of Melamine” value of the first is lower: 3% for the first, 11% for the second.

Going from B17 to B18, the “Degradation in % of Melamine” value rises from 0% to 3%.

Compared with B19, B20 is higher in “Degradation in % of Melamine” value: 0% for the first, 100% for the second.

B21 and B22 are the same in “Degradation in % of Melamine” value: 100% for the first, 100% for the second.

With B23 the “Degradation in % of Melamine” value was 0%.
